According to patent publication US5912120A, “Cloning, expression and diagnosis of human cytochrome P450 2C19: the principal determinant of s-mephenytoin metabolism” (The United States of America as represented by the …, priority 1994, dated 1999):

Key:
Assay type in all cases: biochemical
[1] = Mephenytoin 4'-hydroxylase assay, recombinant human CYP2C yeast microsomes (Table III); conditions: recombinant yeast microsomes + P450 reductase, phospholipid, cytochrome b5 2:1; 0.4 mM substrate, HEPES pH 7.4, 37° C. 30 min; means ± SE
Description: (§1) Purified or recombinant yeast microsomes (10-50 pmol) were preincubated with dilauroylphosphatidylcholine (15 μg per 50 pmol P450), P450 reductase (500 U per 50 mol P450), and human cytochrome b5 (2:1 molar ratio when added). The reconstituted mixture was preincubated for 5 min at 37° C., and then placed on ice. A final concentration of 0.4 mM radiolabelled S- or R-mephenytoin (20.7 mCi/mM and 20.9 mCi/mMol) was added to 50 mM HEPES buffer (pH 7.4) containing 0.1 mM EDTA and 1.5 mM MgCl2 for recombinant 2C proteins. The mixture was then incubated at 37° with shaking for 3 min, and the reaction started with the addition of 2mM NADPH and terminated after 30 min with an equal volume of methanol. […] Reaction volumes were generally 0.25 ml except when the volume of recombinant purified cytochrome or yeast microsomes was greater than 50 μl. In these cases, the volume was increased to 0.5 ml to limit the volume of glycerol from the purified preparation to <4% of the final volume.

[2] = Mephenytoin 4'-hydroxylase assay, purified recombinant P450 2C in reconstituted system (Table IV); conditions: for R/S Ratio / Mephenytoin 4'-Hydroxylase Activity S: purified P450, reconstituted system; for Mephenytoin 4'-Hydroxylase Activity S / Mephenytoin 4'-Hydroxylase Activity R: triplicate, means ± SE, blank not subtracted
Description: Recombinant yeast microsomes were prepared from a 10-12 l culture, and recombinant P450s were purified by aminooctylsepharose chromatography as described by Iwasaki et al., J. Biol. Chem. 226:3380-3382 (1991). The Emulgen was then removed from protein by adsorption of the protein to a 4 g hydroxylapatite column (Hypatite C, Clarkson Chemical Company, Williamsport, Pa.) equilibrated with 10 mM potassium phosphate buffer (pH 7.2), 20% glycerol, 0.1 mM EDTA, and 0.1 mM DTT and washing the column with the same buffer until the absorbance at 280 nm returned to zero. The P450 was then eluted with […], and dialyzed overnight against 100 mM potassium phosphate buffer (pH 7.4, 20% glycerol and 0.1 mM EDTA. Absolute and CO difference spectra of purified P450s were determined in the same buffer but containing 0.2% Emulgen and 0.5% cholate.
Mephenytoin 4'-hydroxylase activity was measured by a modification of the radiometric HPLC assay described by Shimada et al., J. Biol. Chem. 261:909-921 (1986), as described below. Purified or recombinant yeast microsomes (10-50 pmol) were preincubated with dilauroylphosphatidylcholine (15 μg per 50 pmol P450), P450 reductase (500 U per […] P450), and human cytochrome b5 (2:1 molar ratio when added). The reconstituted mixture was preincubated for 5 min at 37° C., and then placed on ice. A final concentration of 0.4 mM radiolabelled S- or R-mephenytoin (20.7 mCi/mM and 20.9 mCi/mMol) was added to 50 mM HEPES buffer (pH 7.4) containing 0.1 mM EDTA and 1.5 mM MgCl2 for recombinant 2C proteins. The mixture was then incubated at 37° with shaking for 3 min, and the reaction started with the addition of 2mM NADPH and terminated after 30 min with an equal volume of methanol. Cytochrome b5 was not included in all CYP2C18 reactions, since it had no effect or produced a slight inhibition on the activity of this CYP protein. Reaction volumes were generally 0.25 ml except when the volume of recombinant purified cytochrome or yeast microsomes was greater than 50 μl. In these cases, the volume was increased to 0.5 ml to limit the volume of glycerol from the purified preparation to <4% of the final volume.
At the end of the incubation period, the reactions were terminated with an equal volume of methanol. The incubation mixture was centrifuged at 10,000 g for 10 min and an aliquot assayed directly using HPLC without extraction. Samples with particularly low activity were concentrated by lyophilization and redissolved in a small volume of methanol:water (1:1) before assay. The HPLC system consisted of a reverse phase C18 (10 μm) Versapak, 300 mm×4.1 mm column (Altech Associates, Deerfield, Ill.) using an isocratic solvent consisting of methanol:water (45:55) with a flow rate was kept of 1 ml/min for 25 min. Detection of radioactive peaks was accomplished using an on-line Flow-One radiochemical detector (Radiomatic Instruments Co., Tampa, Fla. Detection of the unlabeled 4'-hydroxymephenytoin authentic standard was performed using an on-line multiwavelength UV detector at both 211 and 230 nm.
Recombinant P450s were purified from yeast microsomes and assays performe

[3] = Tolbutamide hydroxylase assay, recombinant human CYP2C yeast microsomes (Table V)
Description: Tolbutamide hydroxylase activity was measured according to Knodell et al., J. Pharmacol. Exper. […] Yeast microsomes (1 mg protein) were preincubated with 300 pmol hamster P450 reductase in 0.2 ml of the incubation buffer (below) for 3 min at 37° C. The reaction was then placed on ice and incubated in 0.2 ml of 50 mM HEPES buffer (pH 7.4) containing 1.5 mM MgCl2, 0.1 mM EDTA in a final volume of 1 ml and 1 mM sodium tolbutamide. The reaction was initiated with 0.5 mM NADPH. Human liver microsomes (0.22 mg protein) were incubated without reductase. Incubations with reconstituted recombinant P450s contained 50 pmol purified P450 enzyme, 150 pmol P450 reductase, and 15 μg dilauroylphosphatidyl-choline, and were performed in 100 mM potassium phosphate buffer (pH 7.4). Reactions were terminated after 60 min at 37° C. by the addition of 50 μl of 4N HCl, followed by extraction with 3 ml of water-saturated ethyl acetate. The ethyl acetate extracts were dried under nitrogen at 40° C., the residue resolubilized in 200 μl methanol, and 4-hydroxytolbutamide then assayed using HPLC by injecting 50 μl of the solubilized extract onto a μBONDAPAK C18 column (4.6×300 mm) using 0.05% phosphoric acid, pH 2.6: acetonitrile (6:4, v/v) as the mobile phase with a flow rate of 1 ml/min. The column eluate was monitored at 230 nm and rates of product formation were determined from standard curves prepared by adding varying amounts of 4-hydroxytolbutamide to incubations conducted without NADPH. […] Samples were analyzed in triplicate.

[4] = Mephenytoin 4'-hydroxylase assay, recombinant human CYP2C yeast microsomes (Table III); conditions: for Mephenytoin 4'-Hydroxylase Activity S: recombinant yeast microsomes + P450 reductase, phospholipid, cytochrome b5 2:1, 0.4 mM substrate, HEPES pH 7.4, 37° C. 30 min, means ± SE; for R/S Ratio: with cytochrome b5
Description: as §1

[5] = Tolbutamide hydroxylase assay, purified recombinant P450 2C (Table IV); conditions: purified P450, reconstituted; blank (22 ± 5) subtracted; means ± SE
Description: Tolbutamide hydroxylase activity was measured according to Knodell et al., J. Pharmacol. Exper. Ther. 241:1112-1119 (1987), with several modifications. Yeast microsomes (1 mg protein) were preincubated with 300 pmol hamster P450 reductase in 0.2 ml of the incubation buffer (below) for 3 min at 37° C. The reaction was then placed on ice and incubated in 0.2 ml of 50 mM HEPES buffer (pH 7.4) containing 1.5 mM MgCl2, 0.1 mM EDTA in a final volume of 1 ml and 1 mM sodium tolbutamide. The reaction was initiated with 0.5 mM NADPH. Human liver microsomes (0.22 mg protein) were incubated without reductase. Incubations with reconstituted recombinant P450s contained 50 pmol purified P450 enzyme, 150 pmol P450 reductase, and 15 μg dilauroylphosphatidyl-choline, and were performed in 100 mM potassium phosphate buffer (pH 7.4). Reactions were terminated after 60 min at 37° C. by the addition of 50 μl of 4N HCl, followed by extraction with 3 ml of water-saturated ethyl acetate. […] The column eluate was monitored at 230 nm and rates of product formation were determined from standard curves prepared by adding varying amounts of 4-hydroxytolbutamide to incubations conducted without NADPH. […] Samples were analyzed in triplicate.

B1: 2C19 (11a): recombinant human cytochrome P450 2C19, clone 11a, amino acid sequence SEQ. ID. No. 1, expressed in yeast (protein)
chain: MDPFVVLVLCLSCLLLLSIWRQSSGRGKLPPGPTPLPVIGNILQIDIKDVSKSLTNLSKIYGPVFTLYFGLERMVVLHGYEVVKEALIDLGEEFSGRGHFPLAERANRGFGIVFSNGKRWKEIRRFSLMTLRNFGMGKRSIEDRVQEEARCLVEELRKTKASPCDPTFILGCAPCNVICSIIFQKRFDYKDQQFLNLMEKLNENIRIVSTPWIQICNNFPTIIDYFPGTHNKLLKNLAFMESDILEKVKEHQESMDINNPRDFIDCFLIKMEKEKQNQQSEFTIENLVITAADLLGAGTETTSTTLRYALLLLLKHPEVTAKVQEEIERVIGRNRSPCMQDRGHMPYTDAVVHEVQRYIDLIPTSLPHAVTCDVKFRNYLIPKGTTILTSLTSVLHDNKEFPNPEMFDPRHFLDEGGNFKKSNYFMPFSAGKRICVGEGLARMELFLFLTFILQNFNLKSLIDPKDLDTTPVVNGFASVPPFYQLCFIPV
[1]
  Mephenytoin 4'-Hydroxylase Activity R: 0.014 ± 0.02 nmol/min/nmol P450
[2]
  R/S Ratio: 0.03
  Mephenytoin 4'-Hydroxylase Activity S: 6.17 ± 0.24 nmol/min/nmol P450
  Mephenytoin 4'-Hydroxylase Activity R: 0.19 ± 0.04 nmol/min/nmol P450
[2]; purified, reconstituted system
  S-mephenytoin 4'-hydroxylation turnover number higher than that of recombinant 2C9, 2C18 or 2C8: 50-100 times
[2]; purified, reconstituted system (Table IV)
  stereospecificity of 4'-hydroxylation of mephenytoin: stereospecific for the S-enantiomer
[2]; versus Srivastava et al. (1991)
  S-mephenytoin 4'-hydroxylase turnover number higher than reported for P450MP purified from human liver: ~ 30 times
[2]; versus human liver microsomes
  S-mephenytoin 4'-hydroxylation turnover number higher than that of human liver microsomes: at least 10 times
[3]; 1 mg yeast microsomal protein + purified P450 reductase (1,000 units), means ±SE
  Tolbutamide Hydroxylase Activity (nmol/min/mg protein): 18.4 ± 2.4 nmol/min/mg protein
[3]; recombinant yeast microsomes, in words
  tolbutamide hydroxylase activity compared with 2C9: comparable to that of 2C9
[4]; recombinant yeast microsomes
  rate of S-hydroxylation higher than that of R-hydroxylation: at least 30 fold
  R/S Ratio: 0.03
[4]; recombinant yeast microsomes (Table III)
  stereospecificity of 4'-hydroxylation of mephenytoin: stereospecific
[4]
  Mephenytoin 4'-Hydroxylase Activity S: 4.6 ± 0.3 nmol/min/nmol P450
[4]; listed as 2C19
  Mephenytoin 4'-Hydroxylase Activity S: ~ 5 nmol/min/nmol P450

B2: 2C9-Ile^359 (65): recombinant human P450 2C9 allelic variant, clone 65, expressed in yeast (protein, UniProt P11712 1-490, looked up)
Cytochrome P450 2C9: MDSLVVLVLCLSCLLLLSLWRQSSGRGKLPPGPTPLPVIGNILQIGIKDISKSLTNLSKVYGPVFTLYFGLKPIVVLHGYEAVKEALIDLGEEFSGRGIFPLAERANRGFGIVFSNGKKWKEIRRFSLMTLRNFGMGKRSIEDRVQEEARCLVEELRKTKASPCDPTFILGCAPCNVICSIIFHKRFDYKDQQFLNLMEKLNENIKILSSPWIQICNNFSPIIDYFPGTHNKLLKNVAFMKSYILEKVKEHQESMDMNNPQDFIDCFLMKMEKEKHNQPSEFTIESLENTAVDLFGAGTETTSTTLRYALLLLLKHPEVTAKVQEEIERVIGRNRSPCMQDRSHMPYTDAVVHEVQRYIDLLPTSLPHAVTCDIKFRNYLIPKGTTILISLTSVLHDNKEFPNPEMFDPHHFLDEGGNFKKSKYFMPFSAGKRICVGEALAGMELFLFLTSILQNFNLKSLVDPKNLDTTPVVNGFASVPPFYQLCFIPV
[1]
  Mephenytoin 4'-Hydroxylase Activity R: 0.041 ± 0.005 nmol/min/nmol P450
[2]
  R/S Ratio: 0.77
  Mephenytoin 4'-Hydroxylase Activity S: 0.081 ± 0.006 nmol/min/nmol P450
  Mephenytoin 4'-Hydroxylase Activity R: 0.063 ± 0.003 nmol/min/nmol P450
[3]; 1 mg yeast microsomal protein + purified P450 reductase (1,000 units), adjusted for P450 content
  Tolbutamide Hydroxylase Activity (nmol/min/nmol P450): 3.4 ± 0.15 nmol/min/nmol P450
[3]; recombinant microsomes, adjusted for P450 content
  turnover number for tolbutamide higher than the Leu^359 allele: 3 fold
[4]
  Mephenytoin 4'-Hydroxylase Activity S: 0.043 ± 0.000 nmol/min/nmol P450
[4]; recombinant yeast microsomes
  R/S Ratio: 0.9
[5]
  Tolbutamide Hydroxylase Activity: 122 + 29 pmol/min/nmol P450
